Data published in patent US20050182242A1, “Global analysis of protein activities using proteome chips” (priority 2001, published 2005).

B1: MY04: yeast class V myosin heavy chain, GST-HisX6 fusion (protein, UniProt P32492 1-1471, looked up)
Myosin-4: MSFEVGTKCWYPHKEQGWIGGEVTKNDFFEGTFHLELKLEDGETVSIETNSFENDDDHPTLPVLRNPPILESTDDLTTLSYLNEPAVLHAIKKRYMNGQIYTYSGIVLIAANPFDKVDHLYSREMIQNYSSKRKDELEPHLFAIAEEAYRFMVHEKANQTVVVSGESGAGKTVSAKYIMRYFASVQESNNREGEVEMSQIESQILATNPIMEAFGNAKTTRNDNSSRFGKYLQILFDENTTIRGSKIRTYLLEKSRLVYQPETERNYHIFYQILEGLPEPVKQELHLSSPKDYHYTNQGGQPNIAGIDEAREYKITTDALSLVGINHETQLGIFKILAGLLHIGNIEMKMTRNDASLSSEEQNLQIACELLGIDPFNFAKWIVKKQIVTRSEKIVTNLNYNQALIARDSVAKFIYSTLFDWLVDNINKTLYDPELDQQDHVFSFIGILDIYGFEHFEKNSFEQFCINYANEKLQQEFNQHVFKLEQEEYVKEEIEWSFIEFSDNQPCIDLIENKLGILSLLDEESRLPSGSDESWASKLYSAFNKPPSNEVFSKPRFGQTKFIVSHYAVDVEYEVEGFIEKNRDSVSLGHLDVFKATTNPIFKQILDNRELRSDDAPEEQNTEKKIMIPARLSQKKPTLGSMFKKSLGELMAIINSTNVHYIRCIKPNSEKKPWEFDNLMVLSQLRACGVLETIRISCAGFPSRWTFDEFVQRYFLLTDYSLWSGILYNPDLPKEAIVNFCQSILDATISDSAKYQIGNTKIFFKAGMLAFLEKLRTNKMNEICIIIQKKIRARYYRLQYLQTMESIKKCQSQIRSLLVRTRVDHELKTRAAILLQTNIRALWKREYYRAAIGQIIKLQCTCKRKLILDSVNRKFMLMAAVIIQSYIRSYGHKTDYRTLKRSSILVQSAMRMQLARRRYIVLQKEVEERNIRASYGIGLLEEAIEFKNSFILNLEMLNDSYTRLTQLLQGDLSNIPSKQRQEYETIVNGYNDKISKLKTLQVEIMNTLNKKNALKERKKKQSSLIQSHMQSLAAIKGNKPSRLSDEVKSMKQELAFIENVIAQDFTTTYSANKNDKVKGLGIAGQQVKPKLVNVIRRESGNPDLLELLMDLNCYTLEVTEGYLKKVNVTEVNGDNVLGPIHVITTVVSSLVRNGLLIQSSKFISKVLLTVESIVMSLPKDETMLGGIFWLSNLSRLPAFAANQKTLYEANGGDEKDKLTLIYLNDLENETLKVFDKIYSTWLVKFMKHASAHIEIFDMVLNEKLFKNSGDEKFAKLFTFLNEFDAVLCKFQVVDSMHTKIFNDTLKYLNVMLFNDLITKCPALNWKYGYEVDRNIERLVSWFEPRIEDVRPNLIQIIQAVKILQLKISNLNEFKLLFDFWYALNPAQIQAILLKYKPANKGEAGVPNEILNYLANVIKRENLSLPGKMEIMLSAQFDSAKNHLRYDTSAITQNSNTEGLATVSKIIKLDRK
modifications: GST-HisX6 tag
notes: yeast class V myosin heavy chain, GST-HisX6 fusion
B2: CMK1: yeast calcium/calmodulin-dependent serine/threonine protein kinase, GST-HisX6 fusion (protein)
chain: MDDKVSEKESSPKQTEEDSEGKMAHVQPASYVNKKKYVFGKTLGAGTFGVVRQAKNTETGEDVAVKILIKKALKGNKVQLEALYDELDILQRLHHPNIVAFKDWFESKDKFYIITQLAKGGELFDRILKKGKFTEEDAVRILVEILSAVKYMHSQNIVHRDLKPENLLYIDKSDESPLVVADFGIAKRLKSDEELLYKPAGSLGYVAPEVLTQDGHGKPCDIWSIGVITYTLLCGYSAFRAERVQDFLDECTTGEYPVKFHRPYWDSVSNKAKQFILKALNLDPSKRPTAAELLEDPWIICTELKTHNLLPGLKEGLDARQKFRNSVERVRLNMKIQKLRDLYLEQTESDSDFDEGSQANGSVPPLKATDTSQLSKKLSEEEQSKLKSELTSKAFAQLVNTVLAEKEKFLNINRVCSSDSDLPGSDIKSLDEAKEKPEGKDTKTEE
modifications: left off: a dimerising Fc or GST
notes: yeast calcium/calmodulin-dependent serine/threonine protein kinase, GST-HisX6 fusion

Tested on: PI(3,4,5)P3 liposomes
Test: Yeast proteome chip probed with PI(3,4,5)P3 liposomes
Conditions: liposome binding signal on yeast proteome chip, Cy3-streptavidin detection

| Molecule | PI(3, 4, 5)P3 |
| --- | --- |
| B1 | 51.07 |
| B2 | 699.07 |
